This passage reports Aβ1-40 release, expressed as the percentage of control (cells transfected with the empty vector DNA) and Aβ release (% of control), Aβ1-40 ELISA of conditioned medium of transfected SH-SY5Y cells results from patent US20070142277A1.

This experiment concerns the target endogenously expressed APP isoforms in SH-SY5Y cells (human) (UniProt P05067). In words: cell-based or functional assay.

Sequence of endogenously expressed APP isoforms in SH-SY5Y cells (human) (P05067 18-770): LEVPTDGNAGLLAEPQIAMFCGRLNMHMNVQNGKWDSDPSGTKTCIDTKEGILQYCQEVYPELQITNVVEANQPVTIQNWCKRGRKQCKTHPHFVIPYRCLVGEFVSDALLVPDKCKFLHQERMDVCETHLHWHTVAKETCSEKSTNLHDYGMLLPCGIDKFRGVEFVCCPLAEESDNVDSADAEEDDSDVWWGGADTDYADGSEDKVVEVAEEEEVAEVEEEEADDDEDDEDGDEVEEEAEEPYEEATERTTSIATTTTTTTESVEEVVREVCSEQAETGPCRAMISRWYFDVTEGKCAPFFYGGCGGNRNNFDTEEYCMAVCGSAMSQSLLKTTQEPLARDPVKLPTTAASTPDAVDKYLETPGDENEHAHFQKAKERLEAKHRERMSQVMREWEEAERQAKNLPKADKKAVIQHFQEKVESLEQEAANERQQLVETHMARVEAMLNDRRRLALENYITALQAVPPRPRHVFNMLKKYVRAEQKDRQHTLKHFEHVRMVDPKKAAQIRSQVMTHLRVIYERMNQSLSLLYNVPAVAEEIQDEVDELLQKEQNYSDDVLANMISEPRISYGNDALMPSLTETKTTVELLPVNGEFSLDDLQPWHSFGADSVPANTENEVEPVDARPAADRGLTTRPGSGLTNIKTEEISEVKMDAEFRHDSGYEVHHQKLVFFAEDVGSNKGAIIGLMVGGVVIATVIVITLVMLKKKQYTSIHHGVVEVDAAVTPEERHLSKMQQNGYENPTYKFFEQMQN

“BACE455 (from UniProt P56817 46-501) (enzyme)”: the Aβ1-40 release, expressed as the percentage of control (cells transfected with the empty vector DNA) was 200 % of control and the Aβ release (% of control), Aβ1-40 ELISA of conditioned medium of transfected SH-SY5Y cells was 195 % of control.

For “BACE501 (from UniProt P56817 46-501) (enzyme)”, the Aβ release (% of control), Aβ1-40 ELISA of conditioned medium of transfected SH-SY5Y cells was 193 % of control.
